Source: patent US20260116991A1 (HAINAN SIMCERE ZAIMING PHARMACEUTICAL, published 2026)
Positions count from the first letter of the chain named.

B1: hAb001H1aL1 (antibody, human IgG1, V domains shown)
VH: EVQLVESGGGLVQPGGSLRLSCAASGFSFNTNAMNWVRQAPGKGLEWVGRIRSKSNNYATYYADSVKGRFTISRDDSKNSLYLQMNSLKTEDTAVYYCVRDGYYVLFAYWGQGTLVTVSS
VL: DIVMTQTPLSLPVTPGEPASISCRFSQSIVNSNGNTYLEWFLQKPGQSPQLLIYKVSNRFSGVPDRFSGSGSGTDFTLKISRVEAEDVGVYYCFQGSHVPFTFGQGTKLEIK
notes: Humanized F2.169.2; VH H1a + VL L1; expressed as human IgG1
B2: hAb007LH2L1 (antibody, human IgG1, V domains shown)
VH: EVQLVQSGAEVKKPGSSVKVSCKASGYTFTDYEMHWVRQAPGQGLEWMGTIDPETGNTAYNQKFKGRVTITADKSTSTAYMELSSLRSEDTAVYYCTRPYSLTYWGQGTLVTVSS
VL: B1 VL with F25S, I29F, N31H, N35D, E39Q, F41Y, F101Y
notes: Humanized F3.81.19; VH H2 + VL L1; expressed as human IgG1
B3: hAb003LH2L1 (antibody, human IgG1, V domains shown)
VH: B2 VH with T28R, N61T, K65M, G66D, P99G, L102F
VL: B1 VL with F25S, S28N, N31H, E39Q, F41Y, Y54F
notes: Humanized F2.154.1; VH H2 + VL L1; expressed as human IgG1
B4: hAb006LH1L1b (antibody, human IgG1, V domains shown)
VH: B2 VH with T30S, M34I, T50A, E54K, K65M, P99Y, Y100F, L102F, T103A
VL: B1 VL with F25S, S28T, I29F, N31H, G34A, E39Q, F41Y, F101Y
notes: Humanized F3.38.7; VH H1 + VL L1b; expressed as human IgG1
B5: hAb003LH1L1a (antibody, human IgG1, V domains shown)
VH: B2 VH with T30S, N61T, K65M, G66D, P99G, L102F
VL: B1 VL with F25S, S28N, N31H, N33D, E39Q, F41Y, Y54F
notes: Humanized F2.154.1; VH H1 + VL L1a; expressed as human IgG1
B6: hAb003LH2L1a (antibody, human IgG1, V domains shown)
VH: B2 VH with T28R, N61T, K65M, G66D, P99G, L102F
VL: B1 VL with F25S, S28N, N31H, N33D, E39Q, F41Y, Y54F
notes: Humanized F2.154.1; VH H2 + VL L1a; expressed as human IgG1
B7: hAb001H1aL1b (antibody, human IgG1, V domains shown)
VH: B1 VH
VL: B1 VL with G34A
notes: Humanized F2.169.2; VH H1a + VL L1b; expressed as human IgG1
B8: hAb001H2L1b (antibody, human IgG1, V domains shown)
VH: B1 VH with G68D, N79S
VL: B1 VL with G34A
notes: Humanized F2.169.2; VH H2 + VL L1b; expressed as human IgG1
B9: hAb003LH2L1b (antibody, human IgG1, V domains shown)
VH: B2 VH with T28R, N61T, K65M, G66D, P99G, L102F
VL: B1 VL with F25S, S28N, N31H, G34R, E39Q, F41Y, Y54F
notes: Humanized F2.154.1; VH H2 + VL L1b; expressed as human IgG1
B10: hAb003LH1L1 (antibody, human IgG1, V domains shown)
VH: B2 VH with T30S, N61T, K65M, G66D, P99G, L102F
VL: B1 VL with F25S, S28N, N31H, E39Q, F41Y, Y54F
notes: Humanized F2.154.1; VH H1 + VL L1; expressed as human IgG1
B11: hAb003LH3L1 (antibody, human IgG1, V domains shown)
VH: B2 VH with T28R, N61T, K65M, G66D, I70L, P99G, L102F
VL: B1 VL with F25S, S28N, N31H, E39Q, F41Y, Y54F
notes: Humanized F2.154.1; VH H3 + VL L1; expressed as human IgG1
B12: hAb006LH1L1 (antibody, human IgG1, V domains shown)
VH: B2 VH with T30S, M34I, T50A, E54K, K65M, P99Y, Y100F, L102F, T103A
VL: B1 VL with F25S, S28T, I29F, N31H, E39Q, F41Y, F101Y
notes: Humanized F3.38.7; VH H1 + VL L1; expressed as human IgG1
B13: hAb001H2L1 (antibody, human IgG1, V domains shown)
VH: B1 VH with G68D, N79S
VL: B1 VL
notes: Humanized F2.169.2; VH H2 + VL L1; expressed as human IgG1
B14: hAb003LH1L1b (antibody, human IgG1, V domains shown)
VH: B2 VH with T30S, N61T, K65M, G66D, P99G, L102F
VL: B1 VL with F25S, S28N, N31H, G34R, E39Q, F41Y, Y54F
notes: Humanized F2.154.1; VH H1 + VL L1b; expressed as human IgG1
B15: hAb001H2L1a (antibody, human IgG1, V domains shown)
VH: B1 VH with G68D, N79S
VL: B1 VL with N33D
notes: Humanized F2.169.2; VH H2 + VL L1a; expressed as human IgG1

Experiments:
[1] = molecular target: T1, human GPC3 on CHO-K1-human GPC3 cells (CHOK1-hGPC3.2B5) (human, UniProt P51654 25-554); experiment: FACS, CHOK1-hGPC3.2B5 cells;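 note: flow cytometry of humanized antibodies binding to the cells over one hour in the cold, read as cell mean fluorescence intensity, with EC50 obtained by curve fitting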
T1 construct: whole, on cells

[2] = molecular target: biotinylated labeled human GPC3 protein (produced in-house) (human, UniProt P51654 25-559, limits assumed, biotinylated (Dojindo, Cat. No. LK03); sites not stated); experiment: ELISA, biotinylated human GPC3 protein

| Binder | EC50 [1] | Max MFI [1] | OD450 at 0.0008 nM [2] | OD450 at 0.004 nM [2] | OD450 at 0.02 nM [2] | OD450 at 0.11 nM [2] | OD450 at 0.53 nM [2] | OD450 at 2.67 nM [2] | OD450 at 13.33 nM [2] | OD450 at 66.66 nM [2] |
| --- | --- | --- | --- | --- | --- | --- | --- | --- | --- | --- |
| B1 | 0.269 nM | 3270 MFI | 0.184 OD450 | 0.327 OD450 | 0.874 OD450 | 1.85 OD450 | 2.33 OD450 | 2.42 OD450 | 2.54 OD450 | 2.67 OD450 |
| B2 | 6.56 nM | 6190 MFI | 0.121 OD450 | 0.233 OD450 | 0.654 OD450 | 1.72 OD450 | 2.26 OD450 | 2.26 OD450 | 2.33 OD450 | 2.32 OD450 |
| B3 | 1.07 nM | 5140 MFI | 0.151 OD450 | 0.376 OD450 | 1.03 OD450 | 1.98 OD450 | 2.43 OD450 | 2.47 OD450 | 2.53 OD450 | 2.54 OD450 |
| B4 | 1.1 nM | 4630 MFI | 0.15 OD450 | 0.288 OD450 | 0.841 OD450 | 1.71 OD450 | 2.4 OD450 | 2.46 OD450 | 2.47 OD450 | 2.57 OD450 |
| B5 | 45.1 nM | 2070 MFI | 0.082 OD450 | 0.115 OD450 | 0.334 OD450 | 1.12 OD450 | 1.97 OD450 | 2.27 OD450 | 2.21 OD450 | 2.45 OD450 |
| B6 | 11.6 nM | 1770 MFI | 0.088 OD450 | 0.146 OD450 | 0.423 OD450 | 1.18 OD450 | 1.9 OD450 | 2.14 OD450 | 2.18 OD450 | 2.34 OD450 |
| B7 | 0.325 nM | 3070 MFI | 0.174 OD450 | 0.298 OD450 | 0.809 OD450 | 1.93 OD450 | 2.5 OD450 | 2.62 OD450 | 2.72 OD450 | 2.76 OD450 |
| B8 | 0.455 nM | 3370 MFI | 0.154 OD450 | 0.287 OD450 | 0.787 OD450 | 1.94 OD450 | 2.46 OD450 | 2.52 OD450 | 2.53 OD450 | 2.67 OD450 |
| B9 | 0.584 nM | 5000 MFI | 0.171 OD450 | 0.372 OD450 | 1.05 OD450 | 1.97 OD450 | 2.44 OD450 | 2.39 OD450 | 2.5 OD450 | 2.6 OD450 |
| B10 | 1.42 nM | 5220 MFI | 0.16 OD450 | 0.427 OD450 | 1.19 OD450 | 2.15 OD450 | 2.5 OD450 | 2.47 OD450 | 2.57 OD450 | 2.49 OD450 |
| B11 | 1.08 nM | 5040 MFI | 0.137 OD450 | 0.297 OD450 | 0.915 OD450 | 1.89 OD450 | 2.26 OD450 | 2.56 OD450 | 2.3 OD450 | 2.39 OD450 |
| B12 | 0.906 nM | 4780 MFI | 0.117 OD450 | 0.365 OD450 | 1.05 OD450 | 1.9 OD450 | 2.39 OD450 | 2.36 OD450 | 2.42 OD450 | 2.43 OD450 |
| B13 | 0.359 nM | 3550 MFI | 0.169 OD450 | 0.324 OD450 | 0.895 OD450 | 1.97 OD450 | 2.5 OD450 | 2.6 OD450 | 2.58 OD450 | 2.6 OD450 |
| B14 | 1.2 nM | 5010 MFI | 0.147 OD450 | 0.371 OD450 | 1.11 OD450 | 2.1 OD450 | 2.35 OD450 | 2.5 OD450 | 2.44 OD450 | 2.65 OD450 |
| B15 | 6.17 nM | 2550 MFI | 0.096 OD450 | 0.141 OD450 | 0.437 OD450 | 1.53 OD450 | 2.27 OD450 | 2.42 OD450 | 2.57 OD450 | 2.58 OD450 |
